Measured values published in patent publication US8287850B2, “Conjugates of hydroxyalkyl starch and a protein, prepared by reductive amination” (Fresenius Kabi Deutschland GmbH, priority 2004, dated 2012).

B1: HES-GCSF 50/0.7: hG-CSF conjugated with AldehydoHES50/0.7 of example 6.1(j), prepared in example 6.2(b) (conjugate, UniProt P09919 31-207, looked up)
Granulocyte …: TPLGPASSLPQSFLLKCLEQVRKIQGDGAALQEKLVSECATYKLCHPEELVLLGHSLGIPWAPLSSCPSQALQLAGCLSQLHSGLFLYQGLLQALEGISPELGPTLDTLQLDVADFATTIWQQMEELGMAPALQPTQGAMPAFASAFQRRAGGVLVASHLQSFLEVSYRVLRHLAQP
modifications: hydroxyethyl starch conjugate HES50/0.7
B2: Neupogen: non-modified Neupogen (Amgen), rhG-CSF filgrastim, non-glycosylated, E. coli (protein, UniProt P09919 31-207, looked up)
Granulocyte …: B1 Granulocyte …
modifications: filgrastim, N-terminal Met
notes: non-modified Neupogen (Amgen), rhG-CSF filgrastim, non-glycosylated, E. coli
B3: Neulasta: non-modified Neulasta (Amgen) (conjugate, UniProt P09919 31-207, looked up)
Granulocyte …: B1 Granulocyte …
modifications: pegfilgrastim; 20 kDa PEG
B4: Mock-incubation: reaction control: hG-CSF incubated with 197 mg/ml non-functionalized HES50/0.7 (MW 47,000 D, DS 0.76) (protein, UniProt P09919 31-207, looked up)
Granulocyte …: B1 Granulocyte …
modifications: mixed with non-functionalized HES
B5: HES-GCSF 30/0.4: hG-CSF conjugated with AldehydoHES30/0.4 of example 6.1(f), prepared in example 6.2(d) (conjugate, UniProt P09919 31-207, looked up)
Granulocyte …: B1 Granulocyte …
modifications: hydroxyethyl starch conjugate HES30/0.4
B6: HES-GCSF 10/0.7: hG-CSF conjugated with AldehydoHES10/0.7 of example 6.1(d), prepared in example 6.2(b) (conjugate, UniProt P09919 31-207, looked up)
Granulocyte …: B1 Granulocyte …
modifications: hydroxyethyl starch conjugate HES10/0.7
B7: HES-GCSF 10/0.4: hG-CSF conjugated with AldehydoHES10/0.4 of example 6.1(b), prepared in example 6.2(b) (conjugate, UniProt P09919 31-207, looked up)
Granulocyte …: B1 Granulocyte …
modifications: hydroxyethyl starch conjugate HES10/0.4

Assays:
[1] = In-vivo half-life of alpha1AT samples in mice (alpha1AT-ELISA); conditions: 100 μl of 50 μg/ml i.v. tail vein, female BALB/c mice
Method: Female mice aged 8-10 weeks (BALB/cOlaHsd, Harlan GmbH, Borchen, Germany) were utilized as test organism (42 mice, 14 per sample). The “is bodyweight” of each animal was detected right before administration of the different sample solutions. 100 μl of a 50 μg/ml solution of the samples outlined below in a puffer pH=7.2 (20 mmol sodium phosphate, 150 mmol sodium chloride) were injected intravenously in the tail vein of the mice.
At 1, 2, 4, 10, 24, 31, […], hours after injection, two mice of each group were killed and whole blood samples (˜500 μl) were withdrawn from the heart of the animals. Serum was prepared using Microvette® 500 Z-Gel (Sarstedt, Nümbrecht, Germany). The serum samples were stored at −80° C. until the beginning of the alpha1AT concentration measurements.
alpha1AT concentrations were detected using a commercially available alpha1AT-ELISA (Immundiagnostik, Bensheim, Germany) following the manufacturers instructions.

[2] = tested on: normocythaemic mouse system; assay: EPO-bioassay in the normocythaemic mouse system; format: in vivo
Method: Quantitative determination of EPO protein was performed by measuring UV absorption at 280 nm according to the Eur. Phar. (European Pharmacopeia 4, Monography 01/2002: 1316: erythropoietin concentrated solution) in a cuvette with 1 cm path length. In addition, EPO was quantitated by applying a RP-HPLC method using a RP-C4 column (Vydac Protein C4, Cat.#214TP5410, Grace Vydac, Ca, US); the HPLC method was calibrated using the erythropoietin BRP 1 reference standard (European Pharmacopeia, Conseil de l'Europe B.P. 907-F67029, Strasbourg Cedex 1).
The EPO-bioassay in the normocythaemic mouse system was performed according to the procedures described in the European Pharmacopeia 4, Monography 01/2002:1316: Erythropoietin concentrated solution and Ph. Eur. Chapter 5.3: “Statistical Analysis of Results of Biological Assays and Tests”; For the HES-modified EPO according to example 7.3 a value for the specific activity of 418 500 units per mg EPO of protein was measured indicating an approximately 4-5 fold higher specific activity when compared to the EPO starting material.

[3] = cited from earlier work
[4] = In vivo half-life of G-CSF samples in mice (ELISA of plasma); conditions: 100 μg per kg i.v. tail vein, female BALB/c mice
Method: Female mice BALB/cOlaHsd (Harlan GmbH/Borchen) were used. On the day of administration, the is weights of the animals were measured (19-22 g). 100 μg per kg body weight of the chemically modified rh-G-CSF sample as prepared in Example 6.2(b) as well as Neupogen® and Neulasta® (Amgen) samples were each injected intravenously in the tail vein of nine mice. At 1, 3, 6, 11, 22, 30, 49, 72 hours after injection (see table below), samples of approx. 150 μl whole blood were taken from the tail vein or the retrobulbar venous plexus from 3 mice of the respective group using capillaries containing sodium-heparin (Hirschmann, Eberstadt) and stored on ice until preparation of plasma.
Whole blood was centrifuged for 10 minutes at 2000 g. Plasma was transferred to another tube and recentrifuged for 5 min at 3500 g. Aliquots were stored at −80° C. until the day of analysis. The amount of G-CSF in the plasma samples were quantified by utilizing a ELISA (R&D GambH, Wiesbaden) method, following the instruction of the manufacturer.

[5] = tested on: mouse NFS-60 cells; assay: Mitogenicity of G-CSF variants for mouse NFS-60 cells (Example 6.3); format: cell-based; conditions: 3 days
Method: G-CSF is known for its specific effects on the proliferation, differentiation and activation of hematopoietic cells of the neutrophilic granulocyte lineage. The mitogenic capacity of G-CSF variants was tested using mouse NFS-60 cells (N. Shirafuji et al., Exp. Hematol. 1989, 17, 116-119). Cells grown in RPMI medium with 10% fetal calf serum (Gibco INVITROGEN GmbH, Karlsruhe, D) containing 5-10% WEHI-3B (DSMZ, Braunschweig, D; cultivated as described by the DSMZ) conditioned medium as source of exogenous IL-3 were harvested by centrifugation, washed and aliquoted at 100,000 cells per well in a 24-well plate. Cells were allowed to adapt for 1 hour at 37° C. in RPMI medium without WEHI-3B conditioned media before G-CSF growth factor samples diluted in the same media were added. NFS-60 cells were exposed to purified G-CSF variants (purification according to examples 3A 1 und 2, protein quantification according to example 3B1):
“Mock incubation” (=reaction control, 197 mg/ml HES50/0.7, MW 47,000 D, DS 0.76, Supramol Parenteral Colloids GmbH, Rosbach Rodheim, Germany), for 3 days at 37° C. and then the cells were electronically counted (Casy TT Cell Counter, Schärfe System, Reutlingen, D).
In all cases, the amounts of protein given in the table below and FIG. 21 represent the G-CSF content of the conjugates only. […] All variants reached the same maximum stimulation level at a concentration of 250 pg/ml.

[6] = Conc. 250 pg/ml (G-CSF content)

Molecule	Proliferation of mouse NFS-60 cells, induced by G-CSF variants ([5]; Conc. 5 pg/ml (G-CSF content))	Proliferation of mouse NFS-60 cells, induced by G-CSF variants ([5]; Conc. 10 pg/ml (G-CSF content))	Proliferation of mouse NFS-60 cells, induced by G-CSF variants ([5]; Conc. 25 pg/ml (G-CSF content))	Proliferation of mouse NFS-60 cells, induced by G-CSF variants ([5]; Conc. 50 pg/ml (G-CSF content))	Proliferation of mouse NFS-60 cells, induced by G-CSF variants [5, 6]	further results
A1AT: rh A1AT provided by GTC Biotherapeutics Inc., lot No. 080604A; starting material for the conjugation [Example A1AT]						Plasma half-life in mice [1]: 1.2 h
EPO HES according to example 7.3: recombinant human EPO conjugated with aldehydo-HES of example 7.2 (MW 57,000 D, DS 0.76) by reductive amination						Calculated specific activity of EPO sample (based on A280 and RP-HPLC determination) ([2]; mouse, in vivo): 418500 U/mg; higher specific activity when compared to the EPO starting material ([2]; mouse, in vivo): 4-5 fold; specific activity ([2]; per mg EPO of protein): 418 500 units per mg
EPO starting material (Reaction control A): EPO reacted with aldehydo-HES without sodium cyanoborohydride (example 7.4)						Calculated specific activity of EPO sample (based on A280 and RP-HPLC determination) ([2]; mouse, in vivo): 88500 U/mg
EPO starting material (not modified): recombinant human EPO, essentially same characteristics as Erypo or NeoRecormon						Calculated specific activity of EPO sample (based on A280 and RP-HPLC determination) ([2]; mouse, in vivo): 89000 U/mg
HES-A1AT-conjugate: conjugate of aldehydo-HES (A) and (B) (MW 57,000 D, DS 0.76) with rh A1AT, example 5.5						Plasma half-life in mice [1]: 3.6 h
Sample 3: plasma derived h alpha1 AT (SERVA Electrophoresis GmbH) [reference compound]						Plasma half-life in mice [1]: 3.2 h
activated protein C						circulatory activity half-life in vivo [3]: less than 30 min
B1	0.70	0.97	1.68	2.15	2.32	half-life [4]: 5.1 h
B2	1.20	1.69	2.33	2.49	2.41	half-life [4]: 1.2 h
B3	0.80	1.12	1.83	2.25	2.33	half-life [4]: 5.2 h
B4	1.31	1.91	2.38	2.47	2.41	
B5	1.21	1.62	2.28	2.50	2.60	
B6	0.93	1.44	2.14	2.41	2.41	
B7	0.97	1.40	2.17	2.67	2.75	
